{"source": "patent US6469141B1", "about": "“D1-like dopamine receptor activity modifying protein” (Medical College of Georgia Research Institute Inc., priority 1998, dated 2002)", "key": {"[1]": {"target": "T1, GSTD1 (C-terminal 81 residues of hD1 receptor) (Homo sapiens, UniProt P21728)", "T1 construct": "C-terminal 81 amino acids of the hD1 receptor (residues 365-446); made in house; host or cells: S-Calcyon: BL21(DE3) E. coli", "T1 sequence (P21728 365-446)": "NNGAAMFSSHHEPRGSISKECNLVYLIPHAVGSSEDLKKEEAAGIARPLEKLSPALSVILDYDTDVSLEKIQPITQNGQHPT", "assay": "S-agarose pull-down assay with GSTD1 fusion protein", "assay_type": "binding", "details": "immunoblot with D1 receptor antibodies", "source_text": "For pull-down assays, a 550 bp Nco I-Bgl II fragment from pACT-Calcyon was subcloned into pET30a (Novagen, Madison, Wis.) to produce the S-Calcyon fusion protein containing residues 93-217 of the predicted Calcyon protein as well as an N-terminal tag composed of the 15 residue S peptide of ribonuclease S (Richards, F. M., et al., The Enzymes. ed.: Boyer, P. D., Academic Press, N.Y., pp. 647-806 (1971)). The S-β-galactosidase fusion protein was composed of bacterial β-galactosidase protein tagged at its N-terminus with the S peptide. Fusion proteins were induced in BL2I(DE3) E. coli with IPTG, and coupled to S-agarose resin (Novagen, Madison, Wis.) by incubating soluble fractions of bacterial lysates with resin for 1 h at RT Following incubation, unbound proteins were eliminated by washing the resin three times in 50 volumes of 25 mM HEPES (pH 7.4), 50 mM NaCl. Interaction assays were performed with GSTD1 purified as described (Bergson, C., et al., J. Neurosci. 15:7821-36 (1995)) or solubilized lysates of D1 HEK293 cells in 25 mM HEPES (pH 7.4), 50 mM NaCl, 10% glycerol, 1% bovine serum albumin containing 0.5% NP-40. Peptidel 421-435 ([…]) (SEQ ID No. 3) and Peptide2 ([…]) (SEQ ID No. 4) were synthesized using an Applied Biosystems 430A Peptide Synthesizer using the FastMoc procedures and reagents supplied by Perkin-Elmer, Applied Biosystems division. […]"}, "[2]": {"target": "T2, full-length D1 DA receptors (Homo sapiens, UniProt P21728)", "T2 construct": "expressed in transfected cells; host or cells: D1 HEK293 cell lysate (receptor); BL21(DE3) E. coli (S-Calcyon)", "T2 sequence (P21728 whole entry, the tested form may be a part)": "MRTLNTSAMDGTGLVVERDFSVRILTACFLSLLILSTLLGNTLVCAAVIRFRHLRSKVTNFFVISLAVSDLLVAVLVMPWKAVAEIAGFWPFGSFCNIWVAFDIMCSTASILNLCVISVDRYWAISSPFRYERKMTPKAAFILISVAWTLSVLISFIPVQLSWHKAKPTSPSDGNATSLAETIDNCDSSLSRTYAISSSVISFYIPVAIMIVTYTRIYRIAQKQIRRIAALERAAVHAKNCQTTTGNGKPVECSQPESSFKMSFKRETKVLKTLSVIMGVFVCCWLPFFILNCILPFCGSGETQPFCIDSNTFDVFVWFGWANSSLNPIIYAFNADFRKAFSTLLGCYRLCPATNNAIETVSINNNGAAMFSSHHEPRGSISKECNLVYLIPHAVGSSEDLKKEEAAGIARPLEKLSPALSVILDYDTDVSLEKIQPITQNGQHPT", "assay": "S-agarose pull-down assay with D1 HEK293 cell lysates", "assay_type": "binding", "details": "detergent solubilized D1 HEK293 lysates", "source_text": "For pull-down assays, a 550 bp Nco I-Bgl II fragment from pACT-Calcyon was subcloned into pET30a (Novagen, Madison, Wis.) to produce the S-Calcyon fusion protein containing residues 93-217 of the predicted Calcyon protein as well as an N-terminal tag composed of the 15 residue S peptide of ribonuclease S (Richards, F. M., et al., The Enzymes. ed.: Boyer, P. D., Academic Press, N.Y., pp. 647-806 (1971)). The S-β-galactosidase fusion protein was composed of bacterial β-galactosidase protein tagged at its N-terminus with the S peptide. Fusion proteins were induced in BL2I(DE3) E. coli with IPTG, and coupled to S-agarose resin (Novagen, Madison, Wis.) by incubating soluble fractions of bacterial lysates with resin for 1 h at RT Following incubation, unbound proteins were eliminated by washing the resin three times in 50 volumes of 25 mM HEPES (pH 7.4), 50 mM NaCl. […]\nA human embryonic kidney (HEK) 293 cell line, designated D1 HEK293, that stably expresses hD1 receptors was used to test the ability of S-Calcyon to interact with full-length D1 DA receptors. […] Proteins retained by the S-tagged target polypeptides were analyzed by immunoblotting with D1 receptor antibodies as described above. […]"}, "[3]": {"assay": "binding of 3H-labeled phospholipid vesicles to resin-bound S-Calcyon", "details": "25 μl S-agarose resin, one hour, room temperature", "description": "FIG. 4 is a graph showing that calcyon's cytoplasmic domain binds PIP2. S-Calcyon bound to 25 μl of S-agarose resin, or 25 μl of S-agarose resin only was incubated for one hour at room temperature with phospholipid vesicles containing phosphotidylcholine (PC), phosphotidylethanolamine (PE), or PC, PE, and PIP2. Both types of vesicles were radioactively labeled with equivalent amounts of ^3H-phosphatidylcholine. Following incubation, resins were washed three times with ten volumes of buffer (20 mM hepes, pH 7.4), and amounts of bound phospholipid determined by liquid scintillation counting. Results are reported as percent of input radiolabel precipitated. Bars represent average value obtained in three independent assays with standard error of the mean.\nTests were conducted to determine whether Calcyon can bind PIP2 using the S-Calcyon fusion protein. S-Calcyon contains the predicted cytoplasmic domain of Calcyon (residues 93-217) preceded by an ‘S’ tag (for coupling to S-agarose resin). […] Following incubation, resin was washed three times with ten volumes of buffer (20 mM Hepes, pH 7.4), and amounts of bound phospholipid were determined by liquid scintillation counting. […] Results are reported as percent of input radiolabel precipitated, bars represent the standard error of the mean of each value determined in triplicate. […]"}}}
{"molecule": "S-Calcyon: fusion protein containing residues 93-217 of Calcyon with N-terminal 15 residue S peptide tag (protein) KETAAAKFERQHMDSMALLGCVLIMYKAIWYDQFTCPDGFLLRHKICTPLTLEMYYTEMDPERHRSILAAIGAYPLSRKHGTETPAAWGDGYRAAKEERKGPTQAGAAAAATEPPGKPSAKAEKEAARKAAGSAAPPPAQ", "values": [{"measurement": "pull-down of GSTD1 by resin-immobilized S-tagged protein", "setting": "[1]", "result": "A D1 antibody reactive band of similar size was present"}, {"measurement": "pull-down of full-length D1 receptor by resin-immobilized S-tagged protein", "setting": "[2]", "result": "Bands of similar size were also present"}, {"measurement": "precipitation of PIP2 containing vesicles vs vesicles of PC and PE only", "setting": "[3]", "result": "more than five times more effectively"}]}
